In patent US20240239860A1 (University of Pennsylvania, published 2024):

Molecular target: T1, dipeptidyl peptidase 4 (DPP-4) (UniProt P27487 39-766, limits assumed)
T1 construct: also called adenosine deaminase complexing protein 2; CD26
Experiment: inhibition of DPP-4 cleavage of the chromogenic substrate Gly-Pro-pNA

T1 sequence (P27487 39-766 limits assumed): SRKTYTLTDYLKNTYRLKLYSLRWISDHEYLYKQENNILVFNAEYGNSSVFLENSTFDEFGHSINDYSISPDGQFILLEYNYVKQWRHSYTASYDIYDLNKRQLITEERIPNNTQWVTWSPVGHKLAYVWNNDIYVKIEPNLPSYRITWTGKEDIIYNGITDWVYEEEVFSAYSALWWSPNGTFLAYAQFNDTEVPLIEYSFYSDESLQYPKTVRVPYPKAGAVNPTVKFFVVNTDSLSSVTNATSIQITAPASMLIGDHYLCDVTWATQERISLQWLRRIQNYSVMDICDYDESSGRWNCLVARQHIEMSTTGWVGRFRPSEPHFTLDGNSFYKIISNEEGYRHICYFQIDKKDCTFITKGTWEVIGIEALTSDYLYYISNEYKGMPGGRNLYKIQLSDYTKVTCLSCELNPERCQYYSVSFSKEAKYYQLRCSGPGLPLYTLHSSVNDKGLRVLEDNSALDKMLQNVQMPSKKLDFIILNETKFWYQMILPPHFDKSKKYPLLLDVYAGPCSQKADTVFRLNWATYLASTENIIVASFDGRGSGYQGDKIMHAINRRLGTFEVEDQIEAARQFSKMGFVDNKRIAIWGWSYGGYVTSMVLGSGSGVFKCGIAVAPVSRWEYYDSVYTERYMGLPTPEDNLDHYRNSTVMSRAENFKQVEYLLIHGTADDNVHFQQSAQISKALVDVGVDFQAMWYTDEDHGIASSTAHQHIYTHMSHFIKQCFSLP

- binding result: no binding (tested: 100 µM)
B1: thio GLP-1 (GLP-1 7-36 with a thioamide at the Ala8-Glu9 scissile bond) (peptide)
peptide: HXEGTFTSDVSSYLEGQAAKEFIAWLVKGR
modifications: thioamide (C=S in place of C=O) at Ala8 (second residue of the peptide), i.e. the bond between Ala8 and Glu9; printed HA*EGTF...
notes: C-terminal amide is called optional; also called GLP-1-A^s8; thioamide-modified GLP-1
